# Data published in patent US20100273722.
# No end group written: not given here.
# Assays:
# [1] = sedimentation equilibrium AUC, self-association, 25 C
# [2] = sedimentation equilibrium AUC, self-association, 30 C
# [3] = sedimentation equilibrium AUC, self-association, 10 C
# [4] = sedimentation equilibrium AUC, self-association, 15 C
# [5] = sedimentation equilibrium AUC, self-association, 20 C
# [6] = sedimentation equilibrium AUC, self-association, 5 C
Protein,% monomer at 30 µM [1] [%],other results
GPSQPTYPGDDAPVEDLIRFADNLQQYLNVVTRHRY-NH2 [aPP^Y21A],14,
GPSQPEAPGDDAPVEDLIRFYDNLQQYLNVVTRHRY-NH2 [aPP^Y7AT6E],79,
GPSQPTAPGDDAPVEDLIRFYDNLRQYLNVVTRHRY-NH2 [aPP^Y7AQ25R],78,
GPSQPTAPGDDAVPEDLIRFYDNLQQYLNVVTRHRY-NH2 [aPP^Y7AP13VV14P],90,
GPSQPTAPGDDASPEDLIRFYDNLQQYLNVVTRHRY-NH2 [aPP^Y7AP13SV14P],,% monomer at 30 micromolar total peptide [2]: 98%; % monomer at 30 micromolar total peptide [3]: 82%; % monomer at 30 micromolar total peptide [4]: 84%; % monomer at 30 micromolar total peptide [5]: 90%; % monomer at 30 micromolar total peptide [1]: 90%; % monomer at 30 micromolar total peptide [6]: 74%
GPSQPTYPGDDAPVEDLIRFYDNLQQYLNVVTRHRY (ends and bridges not checked) [avian pancreatic polypeptide (aPP)],23,
GPSQPTAPGDDAPVEDLIRFYDNLQQYLNVVTRHRY-NH2 [aPP^Y7A],98,
GPSQPTYPGDDAPVEDLIRAYDNLQQYLNVVTRHRY-NH2 [aPP^F20A],100,
